Test results reported in patent publication US10323078B2, “Isolated peptides and fragments thereof from fibrinogen for use as drugs, particularly in skin inflammatory diseases” (Universite Paris Descartes, priority 2015, dated 2019).

Key:
Type in all cases: cell-based, human
NHDK cells [1] = experiment: O2°− production by P. acnes-stimulated NHDK; settings: 0.87 to 7 μM
Method: (§1) For experiences of stimulation with P. acnes, cells were incubated with the P. acnes suspension adjusted at the appropriate concentration, pre-treated for 1 h at 37° C. or not with fibrinogen recombinant peptides Fg1 and Fg2 at the concentrations 0.87, 1.75, 3.5 or 7 μM for the desired period of time at 37° C. in 5% CO2.
(§2) All cells lines (5·10^4 to 10^5 cells/well) were seeded in 96-well plates (Corning Costar, Brumath, France) and treated as previously described. After stimulation, cells were washed three times in PBS and incubated with 100 μl per wells of 5 μM DHE (for determination of O2^●−) or 5 μM H2-DCFDA (for determination of H2O2) for 30 min as described previously and fluorescence intensity was recorded every hour over a period of 5 h. Fluorescence excitation/emission maxima were for DHE: 480/610 nm and for H2-DCFDA: 507/525 nm. At the end of the experiment, the number of adherent cells was evaluated by the crystal violet assay as described below. O2^●−, and H2O2 were assayed by spectrofluorimetry on a Fusion spectrofluorimeter (PackardBell, Paris, France). Levels of ROS were calculated in each sample as follows: reactive oxygen species rate (arbitrary units/min/10^6 cells)=(fluorescence intensity [arbitrary units] at T5h—fluorescence intensity [arbitrary units] at To/300 minutes/number of adherent cells as measured by the crystal violet assay, and were expressed as arbitrary unit (A.U.).
(§3) To assess the efficacy of Fg1 recombinant peptide, the production of O2^∘− and H2O2 by HaCaT cells NHDK, THP-1, MRC5 and HDF stimulated by pretreated P. acnes strains 6919, RON and PIE was measured. The amount of ROS produced was compared to that produced by the stimulated cells with untreated bacteria. Production baseline was obtained by measuring ROS on unstimulated cells. The production of IL-1ß, IL-8, IL-12 and TNF-α was also measured in all conditions cited above. The measurement of the production of ROS is performed by spectrofluorimetry in the presence of specific fluorochromes directly on the monolayer cell. Measurement of cytokine production was performed in parallel on the cell culture supernatant.
(§4) Two sets of experiments were implemented: 1) The cells were stimulated (18 h at 37° C.) by P. acnes strains previously pretreated with Fg1 and Fg2 peptides at the final concentrations ranging from 0.87 to 7 μM for 1 h at 37° C.; and 2) The cells were pretreated first with Fg1 and Fg2 peptides at the final concentrations ranging from 0.87 to 7 μM for 24 h at 37° C. and stimulated (18 h at 37° C.) by P. acnes strains.

NHDK cells [2] = experiment: H2O2 production by P. acnes-stimulated NHDK; settings: 0.87 to 7 μM
Method: as §1, §2, §3, §4
(§5) To assess the efficacy of the small Fg1-related peptide, the production of H2O2 by several cell lines (HaCaT, NHDK, THP-1, MRC5 and HDF) stimulated by three P. acnes strains 6919, RON and PIE was measured, in presence or not with the small peptides. The amount of H2O2 produced is compared to that produced by the stimulated cells with untreated bacteria. Production baseline is obtained by measuring H2O2 on unstimulated cells. The measurement of the production of H2O2 is performed by spectrofluorimetry in the presence of specific fluorochromes directly on the monolayer cell.
(§6) Two sets of experiments have been implemented: • I) The cells are stimulated (18 h at 37° C.) by P. acnes strains previously pretreated with Fg1.1, Fg1.2, Fg1.3, Fg1.4, and Fg1.5 small peptides at the final concentrations ranging from 2.5 to 20 μM for 1 h at 37° C.; • II) The cells are pretreated first with the five small peptides at the final concentrations ranging from 2.5 to 20 μM for 24 h at 37° C. and stimulated (18 h at 37° C.) by P. acnes strains.

MRC5 cells = experiment: H2O2 production by P. acnes-stimulated MRC5; settings: bacteria first pretreated, 0.87 to 7 μM
HDF cells [3] = experiment: H2O2 production by P. acnes-stimulated HDF; settings: 0.87 to 7 μM
Method: as §1, §2, §3, §4, §5, §6

ThP1 cells = experiment: IL-1β production by P. acnes-stimulated ThP1 (ELISA); settings: for Inhibition of Interleukine 1 beta (IL-1β) production: ThP1, 0.87 to 7 μM
Method: as §1
(§7) Human IL-1ß, IL-8, IL-12, hBD-2, and TNF-α protein concentration was measured in the supernatants of stimulated cells using various ELISA Set kits (Ready-Set-Go kit from eBioscience for acne experiments, and for psoriasis experiments the Duo set IL-8 kit from R&D Systems and the BD-2 Human Development (hBD-2) from Peprotech) according to the manufacturer's instructions. We used serial dilutions of recombinant human IL-1ß, IL-8, IL-12 and TNF-α for standard curve. The optical density was determined at 450 nm at a wavelength correction of 540 nm.
as §3, §4

HDF cells [4] = experiment: TNF-α production by P. acnes-stimulated HDF (ELISA); settings: 0.87 to 7 μM
Method: as §1, §7, §3, §4

[5] = P. acnes 6919, set I, bacteria first pretreated
[6] = P. acnes 6919, set II, cells first pretreated
[7] = P. acnes PIE, set I, bacteria first pretreated
[8] = P. acnes PIE, set II, cells first pretreated
[9] = P. acnes RON, set I, bacteria first pretreated
[10] = P. acnes RON, set II, cells first pretreated

B1: MKRMVSWSFHKLKTMKHLLLLLLCVFLVKSQGVNDNEEGFFSARGHRPLDKKREEAPSLRPAPPPISGGGYRARPAKAAATQKKVERKAPDAGGCLHADPDLGVLC (protein)
chain: MKRMVSWSFHKLKTMKHLLLLLLCVFLVKSQGVNDNEEGFFSARGHRPLDKKREEAPSLRPAPPPISGGGRARPAKAAATQKKVERKAPDAGGCLHADPDLGVLCMKRMVSWSFHKLKTMKHLLLLLLCVFLVKSQGVNDNEEGFFSARGHRPLDKKREEAPSLRPAPPPISGGGYRARPAKAAATQKKVERKAPDAGGCLHADPDLGVLC
modifications: GST fusion; fragment Fg1
notes: fragment of Bß chain of human fibrinogen having 106 amino acids; recombinant GST-fused peptide expressed in E. coli
NHDK cells [1]; [5]
  Inhibition of Superoxide anion (O2°−) production: pos
NHDK cells [1]; [6]
  Inhibition of Superoxide anion (O2°−) production: pos
NHDK cells [1]; [7]
  Inhibition of Superoxide anion (O2°−) production: pos
NHDK cells [1]; [8]
  Inhibition of Superoxide anion (O2°−) production: pos
NHDK cells [1]; [9]
  Inhibition of Superoxide anion (O2°−) production: pos
NHDK cells [1]; [10]
  Inhibition of Superoxide anion (O2°−) production: pos
NHDK cells [2]; [5]
  Inhibition of Hydrogen peroxide (H2O2) production: pos
NHDK cells [2]; [6]
  Inhibition of Hydrogen peroxide (H2O2) production: pos
NHDK cells [2]; [7]
  Inhibition of Hydrogen peroxide (H2O2) production: pos
NHDK cells [2]; [8]
  Inhibition of Hydrogen peroxide (H2O2) production: pos
NHDK cells [2]; [9]
  Inhibition of Hydrogen peroxide (H2O2) production: pos
NHDK cells [2]; [10]
  Inhibition of Hydrogen peroxide (H2O2) production: pos
MRC5 cells; P. acnes 6919, set I
  Inhibition of Hydrogen peroxide (H2O2) production: pos
MRC5 cells; P. acnes PIE, set I
  Inhibition of Hydrogen peroxide (H2O2) production: pos
MRC5 cells; P. acnes RON, set I
  Inhibition of Hydrogen peroxide (H2O2) production: pos
HDF cells [3]; [5]
  Inhibition of Hydrogen peroxide (H2O2) production: pos
HDF cells [3]; [6]
  Inhibition of Hydrogen peroxide (H2O2) production: pos
HDF cells [3]; [7]
  Inhibition of Hydrogen peroxide (H2O2) production: pos
HDF cells [3]; [8]
  Inhibition of Hydrogen peroxide (H2O2) production: pos
HDF cells [3]; [9]
  Inhibition of Hydrogen peroxide (H2O2) production: pos
HDF cells [3]; [10]
  Inhibition of Hydrogen peroxide (H2O2) production: pos
ThP1 cells; [5]
  Inhibition of Interleukine 1 beta (IL-1β) production: NO (Inhibition NO: Fg1 has no effect on the production of inflammatory molecule)
ThP1 cells; [6]
  Inhibition of Interleukine 1 beta (IL-1β) production: NO (Inhibition NO: Fg1 has no effect on the production of inflammatory molecule)
ThP1 cells; [7]
  Inhibition of Interleukine 1 beta (IL-1β) production: NO (Inhibition NO: Fg1 has no effect on the production of inflammatory molecule)
ThP1 cells; [8]
  Inhibition of Interleukine 1 beta (IL-1β) production: NO (Inhibition NO: Fg1 has no effect on the production of inflammatory molecule)
ThP1 cells; [9]
  Inhibition of Interleukine 1 beta (IL-1β) production: NO (Inhibition NO: Fg1 has no effect on the production of inflammatory molecule)
ThP1 cells; [10]
  Inhibition of Interleukine 1 beta (IL-1β) production: NO (Inhibition NO: Fg1 has no effect on the production of inflammatory molecule)
ThP1 cells; whatever the strain of P. acnes used, production effective only for monocytes
  Effect on the production of IL-1ß: no effect
HDF cells [4]; [5]
  Inhibition of Interleukine TNF alpha (TNF-α) production: pos
HDF cells [4]; [6]
  Inhibition of Interleukine TNF alpha (TNF-α) production: pos
HDF cells [4]; [7]
  Inhibition of Interleukine TNF alpha (TNF-α) production: pos
HDF cells [4]; [8]
  Inhibition of Interleukine TNF alpha (TNF-α) production: pos
HDF cells [4]; [9]
  Inhibition of Interleukine TNF alpha (TNF-α) production: pos
HDF cells [4]; [10]
  Inhibition of Interleukine TNF alpha (TNF-α) production: pos
